Data reported in the Human Domainome abundance scans (Beltran et al. 2025).

B1: Nuclear receptor subfamily 4 group A member 2, residues 260 to 336; numbered along this chain, P43354 (parent)
chain: EGLCAVCGDNAACQHYGVRTCEGCKGFFKRTVQKNAKYVCLANKNCPVDKRRRNRCQYCRFQKCLAVGMVKEVVRTD

Variants of: B1
Assay: abundance fitness (aPCA) (normalised: wild type 0, dead -1); higher = more abundant; growth selection in yeast, the domain comes from the species named
Conditions: Homo sapiens

Abundance fitness, by site and new letter:
N54: T -0.555; I 0.164; C -0.472; F -0.143; D 0.135; V -0.094; G 0.06; Q -0.032; W -0.015; R -0.15; A -0.148; L -0.123; E -0.244; P -0.34; S 0.148
R51: L 0.042; C -0.188; Y -0.109; V -0.035; G -0.001; T 0.166; E 0.082; M 0.019; F 0.064; W 0.054
D49: A -0.135; F -0.204; C -0.67; G -0.073; T 0.013; Y -0.148; L -0.222; R -0.22; W -0.21; M -0.11; E 0.033; V -0.326
F61: G -1.01; Q -0.187; I 0.007; D -0.745; S -0.235; R -0.989; C -0.701; W -0.05; T -0.377; V -0.401; M 0.072; L 0.057
E72: M -0.099; V -0.268; N 0.024; G -0.067; L -0.468; S -0.012; I -0.173; T 0.092; A -0.133; F -0.267; W -0.276; K 0.154; P 0.116; D 0.11; C -0.344
K63: A -0.048; W -0.569; L -0.354; R -0.206; T 0.038; G -0.559; M -0.025; D -0.52; E -0.898; V -0.304
V67: H -0.088; K 0.086; L -0.078; F -0.449; C -0.114; S -0.097; R -0.134; W -0.706; A -0.029; D -0.728; G -0.261; E -0.017; I 0.058; T -0.06; M -0.035
G68: V -0.836; M -0.085; A -0.26; C -0.489; R -0.314; N -0.126; S -0.287; D -0.403; F -0.436; I -0.481; E -0.63; L -0.589
Q57: M 0.463; A 0.068; L -0.034; F -0.177; P 0.187; S 0.083; E -0.083; R -0.289; V -0.126; W -0.28; Y -0.158
P47: V -0.056; F -0.183; M -0.239; A -0.033; W -0.215; E -0.083; L -0.004; R -0.102; D 0.106; C -0.184; G -0.085; S -0.076; I 0.009
L65: T -0.659; V -0.096; S -0.308; W -0.299; I -0.274; Y -0.317; N 0.153; E -0.038; M -0.262; G -0.264; A -0.146
Q62: E -0.245; R -0.234; C -0.153; K 0.079; I -0.241; M 0.079; W -0.345; A -0.095; N -0.38; D -0.139; G -0.297; V -0.137; L -0.137; S 0.018; F -0.31
K44: A -0.265; R -0.03; M 0.037; G -0.052; L -0.096; D -0.093; Y -0.053; C -0.464; T -0.028; V -0.371; H -0.129; W -0.126
V70: P -0.197; E 0.062; L -0.023; I 0.102; F -0.095; W -0.255; M -0.055; A 0.06; G -0.017; K -0.208; S -0.053; R -0.013
R52: E 0; M -0.021; K 0.041; V -0.021; C -0.061; A 0.025; G 0.065; L -0.043; W 0.01; F -0.08; S -0.31; Y 0.204; D 0.002
C56: L -1.09; R -1.06; A -0.941; S -0.667; G -1.05; V -1.05; F -1.21; W -0.908; E -0.894; D -0.707
R53: C -0.078; I -0.043; G 0.06; S 0.084; A 0.078; Q 0.172; E -0.034; V 0.019; L -0.12; F -0.101; D -0.175; M -0.28; Y -0.3
V48: F -0.407; S -0.091; L -0.175; C -0.156; R -0.449; W -0.258; A -0.409; M -0.032; G -0.493
C64: W -0.859; R -0.608; A -0.163; S -0.397; G -0.277; F -0.848; I -0.399; L -0.372
M69: D -0.704; I -0.618; A -0.191; L -0.07; C -0.247; E -0.448; F -0.042; G -0.463; V -0.285; S -0.627; W -0.235; R -0.64
K71: Y 0.114; A 0.008; Q 0.33; P 0.141; D -0.296; M -0.352; F -0.258; W -0.194; G -0.081; R -0.054; I -0.19; E -0.046; L -0.078
C59: F -1.03; E -0.318; W -1.33; V -0.919; R -1.17; A -0.549
R55: S -0.164; V 0.024; W -0.026; E -0.035; L 0.035; Y 0.038; C -0.028; D -0.065; A -0.134; G -0.023; M -0.089
A66: C -0.21; R -0.114; W -0.282; I -0.099; G -0.013; F -0.228; L 0.005; T -0.223; E -0.051; V -0.17; K -0.2; D 0.135; N 0.101; M -0.032
N43: V -0.014; P -0.219; T -0.505; W -0.011; S -0.123; R -0.014; Q -0.283
C46: R -1.07; S -0.754; G -0.897; W -1.03; A -1.16; E -1.09; L -0.609; M -0.993; V -0.851
Y58: V -0.761; G -0.298; D -0.123; C -0.173; A 0.041; L -0.441; F 0.051; S 0.129; E -0.055; R -0.345; W -0.063
K50: W -0.031; D -0.215; G -0.045; S -0.001; T 0.102; A -0.098; L -0.155; Y 0.024; E 0.175; F -0.055; C -0.115; R -0.193; P 0.356
R60: S -0.033; L 0.047; G -0.648; M 0.053; C 0.101; I -0.355; W 0.014; E -0.651; V 0.01; F -0.115
